In patent US7132278B2, “PAS kinase” (Board of Regents, The University of Texas System, priority 2001, dated 2006) one finds Catalytic activity, Vmax and Km data, which are given here for three molecules.

For this data set, the system named is AMARA peptide. Briefly: PASK kinase assay, 32P incorporation into AMARA peptide substrate. The note with it: for Catalytic activity: baculovirus-expressed enzyme variant. It counts as biochemical, human. Here is the method:
Biochemical properties of the Pask enzyme. A recombinant baculovirus was engineered to overexpress human PASK enzyme in cultured insect cells. The enzyme was expressed as a fusion with a His6 tag at its amino terminus such that the recombinant polypeptide could be purified by Ni-affinity chromatography. Routine enzyme preparations were harvested from 0.8 liter of cultured Sf-9 cells. Cells were lysed by dounce homogenization in 50 mM Tris-HCl, pH 8.0, 100 mM NaCl, 0.04% β-mercaptoethanol (“lysis buffer”) and spun at 100,000×G for one hour to remove insoluble debris. Soluble material (˜50 ml) was then applied to a 3 ml bed volume of Ni-affinity resin. Following application and 50× column volume wash, bound material was eluted with storage buffer (50 mM HEPES, pH 7.4, 100 mM NaCl, 1 mM DTT, 1 mM EDTA) supplemented with 250 mM imidazole. Eluted material was sequentially subjected to Mono-Q, anion-exchange chromatography, and eluted with increasing NaCl concentration. Fractions were evaluated by SDS-PAGE to identify PASK enriched fractions, pooled and dialyzed against storage buffer supplemented with 10% glycerol. Typical enzyme preparations yield 0.5 mg of intact PASK enzyme judged to be greater than 95% pure by visual inspection of Coomassie-stained SDS-PAGE gels.
Kinetic data were used to characterize the activities of PASK enzyme samples derived without modification from baculovirus and following pre-phosphorylation in the presence of ATP. Enzyme activity was monitored using a synthetic substrate bearing the sequence NH2-[…]-CO2H (AMARA peptide, SEQ ID NO:9). The serine residue in this peptide is known to be phosphorylated by both AMPK and Snf1 [2], both of which are exceedingly similar in primary amino acid sequence to the catalytic domain of PASK. The three arginine residues located at the carboxyl terminus of the AMARA peptide allow avid binding to phosphocellulose paper, thereby facilitating quantitation of ^32P incorporation catalyzed by PASK from [γ-^32P]ATP. […] Moreover, lambda phosphatase treatment generated an enzyme which had 7-fold lower activity than the unmodified enzyme, and this treatment was fully reversible by allowing the enzyme to autophosphorylate in the presence of ATP.
PASK concentrations (0.5–2 μg/ml) were determined to have linear rates with respect to protein concentration and time. Kinetic constants were determined using peptide substrate concentrations between 0.06–1 mM. The data were fit to a non-linear Michaelis-Menten equation using the GraphPad Prism 2.0 program. Vmax values given are μmol/min/mg. NS indicates an SE less than 0.05.

B1: K1028R: dominant negative human PASK, conserved lysine in ATP-binding region mutated to arginine (protein, UniProt Q96RG2 1-1323, looked up, variant K1028R)
PAS domain-containing …: MEDGGLTAFEEDQRCLSQSLPLPVSAEGPAAQTTAEPSRSFSSAHRHLSRRNGLSRLCQSRTALSEDRWSSYCLSSLAAQNICTSKLHCPAAPEHTDPSEPRGSVSCCSLLRGLSSGWSSPLLPAPVCNPNKAIFTVDAKTTEILVANDKACGLLGYSSQDLIGQKLTQFFLRSDSDVVEALSEEHMEADGHAAVVFGTVVDIISRSGEKIPVSVWMKRMRQERRLCCVVVLEPVERVSTWVAFQSDGTVTSCDSLFAHLHGYVSGEDVAGQHITDLIPSVQLPPSGQHIPKNLKIQRSVGRARDGTTFPLSLKLKSQPSSEEATTGEAAPVSGYRASVWVFCTISGLITLLPDGTIHGINHSFALTLFGYGKTELLGKNITFLIPGFYSYMDLAYNSSLQLPDLASCLDVGNESGCGERTLDPWQGQDPAEGGQDPRINVVLAGGHVVPRDEIRKLMESQDIFTGTQTELIAGGQLLSCLSPQPAPGVDNVPEGSLPVHGEQALPKDQQITALGREEPVAIESPGQDLLGESRSEPVDVKPFASCEDSEAPVPAEDGGSDAGMCGLCQKAQLERMGVSGPSGSDLWAGAAVAKPQAKGQLAGGSLLMHCPCYGSEWGLWWRSQDLAPSPSGMAGLSFGTPTLDEPWLGVENDREELQTCLIKEQLSQLSLAGALDVPHAELVPTECQAVTAPVSSCDLGGRDLCGGCTGSSSACYALATDLPGGLEAVEAQEVDVNSFSWNLKELFFSDQTDQTSSNCSCATSELRETPSSLAVGSDPDVGSLQEQGSCVLDDRELLLLTGTCVDLGQGRRFRESCVGHDPTEPLEVCLVSSEHYAASDRESPGHVPSTLDAGPEDTCPSAEEPRLNVQVTSTPVIVMRGAAGLQREIQEGAYSGSCYHRDGLRLSIQFEVRRVELQGPTPLFCCWLVKDLLHSQRDSAARTRLFLASLPGSTHSTAAELTGPSLVEVLRARPWFEEPPKAVELEGLAACEGEYSQKYSTMSPLGSGAFGFVWTAVDKEKNKEVVVRFIKKEKVLEDCWIEDPKLGKVTLEIAILSRVEHANIIKVLDIFENQGFFQLVMEKHGSGLDLFAFIDRHPRLDEPLASYIFRQLVSAVGYLRLKDIIHRDIKDENIVIAEDFTIKLIDFGSAAYLERGKLFYTFCGTIEYCAPEVLMGNPYRGPELEMWSLGVTLYTLVFEENPFCELEETVEAAIHPPYLVSKELMSLVSGLLQPVPERRTTLEKLVTDPWVTQPVNLADYTWEEVFRVNKPESGVLSAASLEMGNRSLSDVAQAQELCGGPVPGEAPNGQGCLHPGDPRLLTS
B1: the Catalytic activity result is “completely inactive”.

B2: S1273,77,80A: PASK mutant, serine residues 1273, 1277 and 1280 changed to alanine (protein)
chain: MEDGGLTAFEEDQRCLSQSLPLPVSAEGPAAQTTAEPSRSFSSAHRHLSRRNGLSRLCQSRTALSEDRWSSYCLSSLAAQNICTSKLHCPAAPEHTDPSEPRGSVSCCSLLRGLSSGWSSPLLPAPVCNPNKAIFTVDAKTTEILVANDKACGLLGYSSQDLIGQKLTQFFLRSDSDVVEALSEEHMEADGHAAVVFGTVVDIISRSGEKIPVSVWMKRMRQERRLCCVVVLEPVERVSTWVAFQSDGTVTSCDSLFAHLHGYVSGEDVAGQHITDLIPSVQLPPSGQHIPKNLKIQRSVGRARDGTTFPLSLKLKSQPSSEEATTGEAAPVSGYRASVWVFCTISGLITLLPDGTIHGINHSFALTLFGYGKTELLGKNITFLIPGFYSYMDLAYNSSLQLPDLASCLDVGNESGCGERTLDPWQGQDPAEGGQDPRINVVLAGGHVVPRDEIRKLMESQDIFTGTQTELIAGGQLLSCLSPQPAPGVDNVPEGSLPVHGEQALPKDQQITALGREEPVAIESPGQDLLGESRSEPVDVKPFASCEDSEAPVPAEDGGSDAGMCGLCQKAQLERMGVSGPSGSDLWAGAAVAKPQAKGQLAGGSLLMHCPCYGSEWGLWWRSQDLAPSPSGMAGLSFGTPTLDEPWLGVENDREELQTCLIKEQLSQLSLAGALDVPHAELVPTECQAVTAPVSSCDLGGRDLCGGCTGSSSACYALATDLPGGLEAVEAQEVDVNSFSWNLKELFFSDQTDQTSSNCSCATSELRETPSSLAVGSDPDVGSLQEQGSCVLDDRELLLLTGTCVDLGQGRRFRESCVGHDPTEPLEVCLVSSEHYAASDRESPGHVPSTLDAGPEDTCPSAEEPRLNVQVTSTPVIVMRGAAGLQREIQEGAYSGSCHHRDGLRLSIQFEVRRVELQGPTPLFCCWLVKDLLHSQRDSAARTRLFLASLPGSTHSTAAELTGPSLVEVLRARPWFEEPPKAVELEGLAACEGEYSQKYSTMSPLGSGAFGFVWTAVDKEKNKEVVVKFIKKEKVLEDCWIEDPKLGKVTLEIAILSRVEHANIIKVLDIFENQGFFQLVMEKHGSGLDLFAFIDRHPRLDEPLASYIFRQLVSAVGYLRLKDIIHRDIKDENIVIAEDFTIKLIDFGSAAYLERGKLFYTFCGTIEYCAPEVLMGNPYRGPELEMWSLGVTLYTLVFEENPFCELEETVEAAIHPPYLVSKELMSLVSGLLQPVPERRTTLEKLVTDPWVTQPVNLADYTWEEVCRVNKPEAGVLAAAALEMGNRSLSDVAQAQELCGGPVPGEAPNGQGCLHPGDPRLLTS
modifications: left off: small tags and cut ends
notes: PASK mutant, serine residues 1273, 1277 and 1280 changed to alanine
As to B2, the Vmax – broadly, the rate approached at saturating substrate – (Pre-phosphorylated enzyme, peptide substrate) is 0.4 µmol/min/mg. Further, under “Pre-phosphorylated enzyme, peptide substrate 0.06–1 mM”, the Km (in general, the concentration of substrate that gives half-maximal velocity) worked out at 300 µM.

B3: T1165A: PASK mutant, threonine residue 1165 changed to alanine (protein, UniProt Q96RG2 1-1323, looked up, variant T1165A)
PAS domain-containing …: MEDGGLTAFEEDQRCLSQSLPLPVSAEGPAAQTTAEPSRSFSSAHRHLSRRNGLSRLCQSRTALSEDRWSSYCLSSLAAQNICTSKLHCPAAPEHTDPSEPRGSVSCCSLLRGLSSGWSSPLLPAPVCNPNKAIFTVDAKTTEILVANDKACGLLGYSSQDLIGQKLTQFFLRSDSDVVEALSEEHMEADGHAAVVFGTVVDIISRSGEKIPVSVWMKRMRQERRLCCVVVLEPVERVSTWVAFQSDGTVTSCDSLFAHLHGYVSGEDVAGQHITDLIPSVQLPPSGQHIPKNLKIQRSVGRARDGTTFPLSLKLKSQPSSEEATTGEAAPVSGYRASVWVFCTISGLITLLPDGTIHGINHSFALTLFGYGKTELLGKNITFLIPGFYSYMDLAYNSSLQLPDLASCLDVGNESGCGERTLDPWQGQDPAEGGQDPRINVVLAGGHVVPRDEIRKLMESQDIFTGTQTELIAGGQLLSCLSPQPAPGVDNVPEGSLPVHGEQALPKDQQITALGREEPVAIESPGQDLLGESRSEPVDVKPFASCEDSEAPVPAEDGGSDAGMCGLCQKAQLERMGVSGPSGSDLWAGAAVAKPQAKGQLAGGSLLMHCPCYGSEWGLWWRSQDLAPSPSGMAGLSFGTPTLDEPWLGVENDREELQTCLIKEQLSQLSLAGALDVPHAELVPTECQAVTAPVSSCDLGGRDLCGGCTGSSSACYALATDLPGGLEAVEAQEVDVNSFSWNLKELFFSDQTDQTSSNCSCATSELRETPSSLAVGSDPDVGSLQEQGSCVLDDRELLLLTGTCVDLGQGRRFRESCVGHDPTEPLEVCLVSSEHYAASDRESPGHVPSTLDAGPEDTCPSAEEPRLNVQVTSTPVIVMRGAAGLQREIQEGAYSGSCYHRDGLRLSIQFEVRRVELQGPTPLFCCWLVKDLLHSQRDSAARTRLFLASLPGSTHSTAAELTGPSLVEVLRARPWFEEPPKAVELEGLAACEGEYSQKYSTMSPLGSGAFGFVWTAVDKEKNKEVVVKFIKKEKVLEDCWIEDPKLGKVTLEIAILSRVEHANIIKVLDIFENQGFFQLVMEKHGSGLDLFAFIDRHPRLDEPLASYIFRQLVSAVGYLRLKDIIHRDIKDENIVIAEDFTIKLIDFGSAAYLERGKLFYTFCGAIEYCAPEVLMGNPYRGPELEMWSLGVTLYTLVFEENPFCELEETVEAAIHPPYLVSKELMSLVSGLLQPVPERRTTLEKLVTDPWVTQPVNLADYTWEEVFRVNKPESGVLSAASLEMGNRSLSDVAQAQELCGGPVPGEAPNGQGCLHPGDPRLLTS
Take B3: the Catalytic activity entry is “Catalytically inactive”.
